Patent publication US20180037631A1 (Bristol-Myers Squibb, published 2018)
Numbering of substitutions follows the chain as printed.

B1: E28 (designed binder)
10Fn3 domain: MGVSDVPRDLEVVAATPTSLLISWNPGSKSYQYYRITYGETGGNSPVQEFTVPGGVRTATISGLKPGVDYTITVYAVTDFYNPDTHEYLYNQYPISINYRTEIDKPSQ
B2: E19 (designed binder)
10Fn3 domain: MGVSDVPRDLEVVAATPTSLLISWETESNAYQYYRITYGETGGNSPVQEFTVPGQIYTATISGLKPGVDYTITVYAVTDYKPHADGPHTYHESPISINYRTEIDKPSQ
B3: E31 (designed binder)
10Fn3 domain: MGVSDVPRDLEVVAATPTSLLISWTYNDGSYQYYRITYGETGGNSPVQEFTVPYAVYTATISGLKPGVDYTITVYAVTDFYNPATYEYIYHTTPISINYRTEIDKPSQ
B4: E29 (designed binder)
10Fn3 domain: MGVSDVPRDLEVVAATPTSLLISWQPGTTHYQYYRITYGETGGNSPVQEFTVPYDLMTATISGLKPGVDYTITVYAVTDYYNPNTYEYIYLTTPISINYRTEIDKPSQ
B5: E20 (designed binder)
10Fn3 domain: MGVSDVPRDLEVVAATPTSLLISWMTSPSVYQYYRITYGETGGNSPVQEFTVPGPVQTATISGLKPGVDYTITVYAVTDYKEHQHAPHQYTAHPISINYRTEIDKPSQ
B6: E18 (designed binder)
10Fn3 domain: B2 10Fn3 domain with E25F, T26V, E27T, S28H, N29V, Q55G, I56L, Y57S
B7: E30 (designed binder)
10Fn3 domain: MGVSDVPRDLEVVAATPTSLLISWAIGTIVYQYYRITYGETGGNSPVQEFTVPAGVYTATISGLKPGVDYTITVYAVTDYYDWATHEYNYHTAPISINYRTEIDKPSQ
B8: E46 (designed binder)
10Fn3 domain: MGVSDVPRDLEVVAATPTSLLISWQVGSVVYQYYRITYGETGGNSPVQEFTVPRDVLTATISGLKPGVDYTITVYAVTDYKPKPDGPHIYQAVPISINYRTEIDKPSQ
B9: E47 (designed binder)
10Fn3 domain: B1 10Fn3 domain with G27A, S30D, G55Q, R57P, D84A, L89K, N91D, Q92S, Y93T
B10: E56 (designed binder)
10Fn3 domain: MGVSDVPRDLEVVAATPTSLLISWYSGDYHYQYYRITYGETGGNSPVQEFTVPHDLETATISGLKPGVDYTITVYAVTDYYNPATHYYKYEQTPISINYRTEIDKPSQ
B11: E58 (designed binder)
10Fn3 domain: MGVSDVPRDLEVVAATPTSLLISWSAVRWRYQYYRITYGETGGNSPVQEFTVPGGVRTATISGLKPGVDYTITVYAVTDFYNPRTHVYIYDQFPISINYRTEIDKPSQ
B12: E49 (designed binder)
10Fn3 domain: MGVSDVPRDLEVVAATPTSLLISWHSGPREYQYYRITYGETGGNSPVQEFTVPGQVYTATISGLKPGVDYTITVYAVTDFFNPITHYYYYELTPISINYRTEIDKPSQ
B13: E54 (designed binder)
10Fn3 domain: MGVSDVPRDLEVVAATPTSLLISWKASYTGYNYYRITYGETGGNSPVQEFTVPRDVMTATISGLKPGVDYTITVYAVTDFYNPDTHQYTYRRIPISINYRTEIDKPSQ
B14: E48 (designed binder)
10Fn3 domain: MGVSDVPRDLEVVAATPTSLLISWRSSATAYQYYRITYGETGGNSPVQEFTVPGRVYTATISGLKPGVDYTITVYAVTDFFNWATHEYIYHSTPISINYRTEIDKPSQ
B15: E52 (designed binder)
10Fn3 domain: MGVSDVPRDLEVVSATPTSLLISWQVPRPMYQYYRITYGETGGNSPVQEFTVPGGVRTATISGLKPGVDYTITVYAVTDYWFKEYREDPISINYRTEIDKPSQ
B16: E51 (designed binder)
10Fn3 domain: MGVSDVPRDLEVVAATPTSLLISWGGHRAVYQYYRITYGETGGNSPVQEFTVPGAVYTATISGLKPGVDYTITVYAVTDYYNPDTHEYKYHQYPISINYRTEIDKPSQ
B17: E53 (designed binder)
10Fn3 domain: B16 10Fn3 domain with G25S, G26V, H27G, R28G, A29M, V30I, A55M, Y57T, D84A, Y93T
B18: E55 (designed binder)
10Fn3 domain: B16 10Fn3 domain with G25S, G26V, H27G, R28Q, A29V, V30F, G54Y, A55D, D84A, Y93T
B19: E57 (designed binder)
10Fn3 domain: B16 10Fn3 domain with G25I, G26V, H27Q, R28G, A29G, V30R, A55M, Y57T, D84S, Y93T
B20: E50 (designed binder)
10Fn3 domain: MGVSDVPRDLEVVAATPTSLLISWTVGLSVYQYYRITYGETGGNSPVQEFTVPGMVSTATISGLKPSVDYTITVYAVTDYKPHADGPHTYHEYPISINYRTEIDKPSQ
B21: E87 (designed binder)
10Fn3 domain: MGVSDVPRDLEVVAATPTSLLISWGSPLIEYQYYRITYGETGGNSPVQEFTVPGGLSTATISGLKPGVDYTITVYAVTDYFNPATHEYTYHVSPISINYRTEIDKPSQ
B22: E86 (designed binder)
10Fn3 domain: MGVSDVPRDLEVVAATPTSLLISWDSGENNYQYYRITYGETGGNSPVQEFTVPGGVRTATISGLKPGVDYTITVYAVTDYYNPKTHEYNYLTIPISINYRTEIDKPSQ
B23: E89 (designed binder)
10Fn3 domain: MGVSDVPRDLEVVAATPTSLLISWDDPAANRQYYRITYGETGGNSPVQEFTVPYDLRTATISGLKPGVDYTITVYAVTDYYNPATHQYKYSQSPISINYRTEIDKPSQ
B24: E88 (designed binder)
10Fn3 domain: MGVSDVPRDLEVVAATPTSLLISWSATNKTYQYYRITYGETGGNSPVQEFTVPGGVRTATISGLKPGVDYTITVYAVTDYFNPTTHEYIYQTTPISINYRTEIDKPSQ

These binders were tested against T1, EGFR on the surface of human tumour cells (A431, H292) (human, UniProt P00533 25-1210) (assay: cell-based or functional assay).

% inhibition of EGFR phosphorylation at 100 nM binder, cell-based assay [%]	Binder
85.3	B1
84.6	B2
75.8	B3
87.9	B4
80.2	B5
91.1	B6
87.3	B7

Biological target: T1, EGFR on the surface of human tumour …
Assay: cell-based or functional assay
Remark: another data set of the same source

% inhibition of EGFR phosphorylation at 100 nM binder, cell-based assay [%]	Binder
77	B8
76.9	B9
84.2	B10
79.7	B11
83.5	B12
76.1	B13
88.6	B14
75.3	B15
82.8	B16
79.8	B17
99.1	B18
75.5	B19
77.4	B20

Biological target: T1, EGFR on the surface of human tumour …
Assay: cell-based or functional assay
Remark: another data set of the same source

% inhibition of EGFR phosphorylation at 100 nM binder, cell-based assay [%]	Binder
87	B21
84.7	B22
82.6	B23
89.3	B24
